Data published in a protein production outcome set (Wang et al. 2014).

Assay: label from the status in PepcDB records
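Also: failed if final PepcDB status was selected cloned or expressed and not failed if soluble or beyond.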

Q: With “MRTSRVLAGILAATLTVSLAACSQDSSETSSNSSSAASQSSDVSNEAFPVTIEHAFGETTIESKPERIATVGWSNHEVPLALGVTPVGFEKVTWGDDDNNGILPWVEETLSKLGSDEPVLFDATDSIPFEEIANTAPDVILASYSGITQEDYDQLSQIAPVVAYPEIAWGTSLDEMIEMNSKAIGLEQEGKDLIADLDAEVASAIDANPELKDAKPVFAFFDESDFSQIGVYTSIDPRMSFLLDAGVQEASVLKEHSSPDSFYEQVSAENPETFDDVDVIITYGTEDDAANAELLSKMQADPLLSRIPAIAEGKVVFLGANPLAASANESPLSIPWGINDYFAKLAEPLK” as the sequence, how does the protein production read?
A: failed

Q: Which protein production does the source give for “MARTITFDIPSQYKLVDLIGEGAYGTVCSAIHKPSGIKVAIKKIQPFSKKLFVTRTIREIKLLRYFHEHENIISILDKVRPVSIDKLNAVYLVEELMETDLQKVINNQNSGFSTLSDDHVQYFTYQILRALKSIHSAQVIHRDIKPSNLLLNSNCDLKVCDFGLARCLASSSDSRETLVGFMTEYVATRWYRAPEIMLTFQEYTTAMDIWSCGCILAEMVSGKPLFPGRDYHHQLWLILEVLGTPSFEDFNQIKSKRAKEYIANLPMRPPLPWETVWSKTDLNPDMIDLLDKMLQFNPDKRISAAEALRHPYLAMYHDPSDEPEYPPLNLDDEFWKLDNKIMRPEEEEEVPIEMLKDMLYDELMKTME” here?
A: failed

Q: For “MLAVKIFDRLPLALVITNASHSVLYANDAFKLMVCLQPDDILAFNPEQFFSPSEPHEIASLFNHLSEGKMWQGELVGLRNNGETFYLDLTVTVFRESHSADLGFAWLFSDVSERKKAAQLEHHHHHH”, which protein production is on record?
A: not failed

Q: For “MLAERRPAVTPTDGAQVLKALDAQAALLPYALGVFAVSLPLFVWVGSFAANPLWMTASFAIFAINWGVFYAAVSWIRDEPSQDLARRARVQVLCGVLWALAVMQISAFAHNAGPARETLLLLATAGAVLCAFFAAPYLPGLLIIAPLAAAGPLLAQFSSADSRHAGELTFGATALAMTLALILNRMFRRQHDLAISHEQLVVERLRVLEAAERTARSKSDIVATLSHEIRNGLTGVTHVLAAAAGRGGRAAPSREQLNAALDAAQDLIAVLNATLDSETAESGRLQVDARPFDPVRLVQDLALLDKPHAAAKGLELSVHVDPLLRERAKGAAIADALRTRQIVSNLLGNAVKYTVRGRVEVRLELRDDRIAIEVADTGPGLSTEELEQAFEPFRRVERTGAGVNGAGLGLSLSRQLARLMGGALEARSAVGVGSCFTLTLPFDLGAKDEQAEALDTAVAEASGAPRALRVLIAEDDALNAAMLRAVLEQLGHQVVHAANGRRAADLAKIAEFDLLMLDHRMPVMDGPEAASSLRQGDGPNRQTPIVAVIDGDAEEAAEFLEAGAEIVLRKPVSVAGVARALADAAALERTDPAKVAA”, which protein production is on record?
A: failed

Q: Which protein production does the source give for “MMNGENMDKQTVIGFVVLFCVLELVFYLKKLYQSMALTLAVFGIFSLLFFLLYIPVLSKKAVPYVINYFKPPHQRVREIKVGSDETTDNSIIRLKEKAKTLHPDEGNRISGRSSNSFKDSASCIITIVDDSN” here?
A: failed

Q: For “SKNEKEQLSKAKASVSSLNKVIQTKLTVGNLGLGLVVIQNGPYLQISHLINKGAAASDGILQPGDVLISVGHANVLGYTLREFLKLLQNITIGTVLQIKAYRGFLEIPQEWQD”, which protein production is on record?
A: not failed

Q: For “MYKRRVDPELEDLTSRAREALALFISISLRDNTELNLVVPNGPSWLSHVDKKDLYLNDETLKKITDILVAKDVTGNYNIVNVAIAAAPQHSQKRFVIYIKTSIYVEIVVIGNMKSNLTLIADGQDSTIITFNLSSSNSKRTFNTATFASNGDGFIRVDMCFRNTTWPVKGPVVTLRVNGDMSIIYRCRVEEYQDALYPHKNRQCYREYFLMDTVDFICGNAAAVFQFCQIVHMDG”, which protein production is on record?
A: not failed

Q: With “MPTDYIRNGVLYVTENYLCFESSKSGSSKRNKVIKLVDITDIQKYKVLSVLPGSGMGIAVSTPSTQKPLVFGAMVHRDEAFETILSQYIKITSAAASGGDS” as the sequence, how does the protein production read?
A: failed

Q: With “MLRASLLCSSTSITFTPIQLFNPNSSHRFPRFELSRPVSALSRTKCHLSLLRARGKSSFLTRSTATDEAVETSSNSGLDLVEVGFLSGVHGLQGEICIKPNTDFPDLRFSKPGRRWLKQQLLGQDKIDEVELVEGRPHPAQKSWILKFRGLDDVDQVRQLVGATLLAEDDDRPELDEGEFYSRDLVGMRVLLKETGQLVGTVANIFDNGGNDLLHVLLDSSMEVCNGNAKTNQLVWIPFVDAIVPDVDLERKEMYITPPKGLLEVNMRADDRSKKERRQLEWKERKKQQKRLIAAKKKLCEMEQKHVFDGLRFGEKSQRNLLADHILNVNSTLLQKALQSIDTSSKRWNVTEEINALRARVSECNLSVSRECLSFDASKENMGDNFSFLQQGQNLFSEGKVSICLVLNDHENEEPEGENGVVSYLHALLDEEQRFIKEEDRACVPLVIVSPEHTIEALQKLFQDNDHFGFESEKIWILKEETLPVVCSSPEEPKKHKILMKSPWEILESPVGSGGVLSILASHGTTDSLSTLGINYLQVHSIETKPQPSQHYINPMLVGFVSARGAEIGIQVTEESELKNLEMTFSMKFLKRLKGKIEFEAVMKMNSHVQNVEKEWVESVPSEPNSFEFRSDIYRVLSECSSSAKICLMNITV” as the sequence, how does the protein production read?
A: failed

Q: Which protein production does the source give for “MKKKYTIFAISMAVALVLGGEVQSINDSVEAQELQHTVKNVKQTEDFNPTKYANEIENFVKQQNPVSIKSLFSTIALKEKADFEKYGEANAAQVKMLWGSYVFFDFGFVKDSKIIEAIKNNPSVYAKFKKTVNINGTGAFLPGTGSPESISIKNNEDGSNIDSYAYYTPHNPDITKNADKTVVMHGGFRGGYEAGNDTPEIRTFYDKGYNILCVDNRATSLSGGDYVTFGQYESDDVQAWINHYLKDKPDQKIVLYGGSMGASTMMSVLAKNYSSNIKGIIENCGFANIRNELGYVYTMAAIGKNELKDLTGTDFAEDFSVTPMNLQKMMETINNYYIKPKANVDIDGNLPAQGITNAIMPKLFIHGESDLVVPFKDNGQYLATLGDTNNNYKFFVPKAGHGEAQTIDGNGYDKAISDYLNLIFK” here?
A: failed

Q: With “MSARMFVLCCIWFIVAFLWITITSALDKEWMIDGRGINNVCDVLMYLEEDDTRDVGVIMTLPLFFPFLWFALWRKKRGWFMYATALAIFGYWLWQFFLRYQFCL” as the sequence, how does the protein production read?
A: failed

Q: With “MKAAEKYAKDVVAGKILVCKWIMLLAQRHLDDLAVSKRKDFPYKFDPAKAEKVAKFLQLLPHTKGKWGGKKQLIKLEPWQLFSVCVPFGWVRKKDGTRRYRTILVFVPRKNGKSIIGGGVGLYMFVADGEFGAEVYSGATTEKQAWEVFRPAKLMVERTDDLREHYGVDVNASNMVVLADGSRFEPVIGKPGDGSSPSCSVVDEYHEHQDSTLYDTMETGMGAREQPIMLVITTAGSSIGGPCHQLIRDSERMLEGVIDRPDLWPALYTIDQGDDWTSEIALRKANPNFGISVAEDFLLARQRDAMQSATKQATFRTKHLNEWVGAKNAWLNMLRWKEAPVRKSLAELEGRSCYGSLDLASKIDIAANLLIFPPHGDDPFWHIHARYYLPEARVLEELDSNTARYREFDALGLLTLTDGEVTDFEVIKEDMREFAGRFDIRAYAYDPWQATQLAQEMDAEGLPMVELRQTVQNLSEPMKEVEALVLQRKLAHGDCPVLTWMASNVVAKLDVKDNIYPNKERPENKIDGMVSLITGCAVAIKLGIDDSGHFDDFLASPIVVG” as the sequence, how does the protein production read?
A: failed

Q: For “MQERIKACFTESIQTQIAAAEALPDAISRAAMTLVQSLLNGNKILCCGNGTSAANAQHFAASMINRFETERPSLPAIALNTDNVVLTAIANDRLHDEVYAKQVRALGHAGDVLLAISTRGNSRDIVKAVEAAVTRDMTIVALTGYDGGELAGLLGPQDVEIRIPSHRSARIQEMHMLTVNCLCDLIDNTLFPHQDD”, which protein production is on record?
A: not failed

Q: For “MKILVAFDGSDGAQKALGFAINFSKDCERMIVLYVSRDIISESGRLTYIPDTALERRDSEDEAILARARSILASSNIPFEIIKKNSDGVDVSKVIADTAKELECNMIITGTRKLRGLSKYLLGSVSAGIIAISNVPVIVVP”, which protein production is on record?
A: failed

Q: With “MKQWLAAMETSVLVMGALRLFSGSAEIFAALLMLYVNDAKKALFINGMLAFVGPTVLILTMTIGIASVASEISFLKLFFLALGICCIFIALLK” as the sequence, how does the protein production read?
A: failed

Q: With “MSRLFHQRGNVMPIHVITALPGGGKTAIMVEMLEAEAKIGARPLFAAGIDGLQPGLATVLDDPSQWNAKDAHGNYVVPDGSLVFVDEAWKWFGMKYGGSGMRQTTPDHVRALAEHRHRGLDFVWTTQQAHKQLYSFVHGLIGRHTFIKRRFGTRFLDVWEWDEMVENVNSASNREFSRHQVRTLPKHVYSLYKSAEIHT” as the sequence, how does the protein production read?
A: failed

Q: With “MDSQELKTLINYYCQERYFHHVLLVASEGIKRYGSDPVFRFYHAYGTLMEGKTQEALREFEAIKNKQDVSLCSLLALIYAHKMSPNPDREAILESDARVKEQRKGAGEKALYHAGLFLWHIGRHDKAREYIDRMIKISDGSKQGHVLKAWLDITRGKEPYTKKALKYFEEGLQDGNDTFALLGKAQCLEMRQNYSGALETMNQIIVNFPSFLPAFVKKMKLQLALQNWDQTVETAQRLLLQDSQNVEALRMQALYYVCREGDIEKASTKLENLGNALDAMEPQNAQLFYNITLAFSRTCGRSQLILQKIQTLLERAFSLNPQQSEFATELGYQMILQGRVKEALKWYKTAMTLDETSVSALVGFIQCQLIEGQLQDADQQLEFLNEIQQSIGKSAELIYLHAVLAMKKNKRQEEVINLLNDVLDTHFSQLEGLPLGIQYFEKLNPDFLLEIVMEYLSFCPMQVSNYGTYFQGCVYLMFYERT” as the sequence, how does the protein production read?
A: failed

Q: For “MTHPFEPFFDKDSKILILGSFPSIKSRQDGFYYQHPRNRFWPILETLFNAKLENITEQQAFLRKKHIALWDVLQSCKIKNSDDKTISYAKANDLNLILSQTKIQAIFTTGQSAYRFFVKFHPRLEAIALPSTSPANLNFSFEQLLQNYEIIKKFTKLEHHHHHH”, which protein production is on record?
A: failed

Q: Which protein production does the source give for “MAYITYQQYLDLYGTCPISEEEFPVYAGLASDMIDSITRYRIVEGGGISALPSILQTLVQKAAAAQVLYFTQIGLETVLTGQAGQSFTVGKVSVSGGALSSTTTKPGALMVSPFALSLLEQTPLMERGVHVCSDRFLNPFWGILEHHHHHH” here?
A: failed

Q: Which protein production does the source give for “MKIAVLGATGRAGSAIVAEARRRGHEVLAVVRDPQKAADRLGATVATLVKEPLVLTEADLDSVDAVVDALSVPWGSGRGYLHLDFATHLVSLLRNSDTLAVFILGSASLAMPGADHPMILDFPESAASQPWYDGALYQYYEYQFLQMNANVNWIGISPSEAFPSGPATSYVAGKDTLLVGEDGQSHITTGNMALAILDQLEHPTAIRDRIVVRDADLEHHHHHH” here?
A: not failed

Q: For “RSMEDVRLHRKEKGDAYSFNWSLKIEADFQLPFDPTHTSMEGLNLNLDQEPQVLAANLRKAFSGIVAGNVKAEGIREIECKGPFSIHGDPVLMKKLDKLLQDFVEQHRMKLPGGSDYEPCYRIAHP”, which protein production is on record?
A: failed

Q: For “MVRISNMQFEVIENVKDGWNEEAFVERYSDVLNKYDYIVGDWGYNQLRLRGFFDDQNKKSTYDKKISTLQDYLYEYCNFGCAYFVVKRVKTESLEHHHHHH”, which protein production is on record?
A: failed

Q: With “MSSVCFSVSREKLSGDIMLEKLNHYRQNLNFPLARPKNSSTQFRFDWVDNLRELQEVQRFRATQFSHQFGIHFDDGLDQDLYDFNCEHAVLREKWTGEIVAYTRLKLFQGHELSQSYSAQEFDIVDKLSYLPNVVEIGRTCVHPKFRSGKALSTLWLNLVPKVLWSMKAKYLMGCVSIHLDDNAARVYHTHQKIQRLSAEQTIDISSKCAYEPTHPQFSFPQDERIPKLFQMYLTMQSKLSKEAFYDEDFNCLDYFVFLEVNKIAKSFVMNKMVQR” as the sequence, how does the protein production read?
A: failed

Q: For “MKVEKGDVIRLHYTGKVKETGEIFDTTYEDVAKEARIYNPNGIYGPVPIAVGAGHVLPGLDKRLIGLEVKKKYVIEVPPEEGFGLRDPGKIKIIPLGKFRKSGIIPYPGLEIEVETENGRKMRGRVLTVSGGRVRVDFNHPLAGKTLVYEVEVVEKIEDPIEKIKALIELRLPMIDKDKVIIEISEKDVKLNFKDVDIDPKTLILGEILLESDLKFIGYEKVEFEPTIEELLKPKSAEEQESPNEEQQEESESKAEES”, which protein production is on record?
A: failed
